Experimental findings from patent US20170319675A1 (IMMATICS BIOTECHNOLOGIES, published 2017) are described below.

This experiment concerns the target T1, HLA-A*0201 (human).
T1 construct: also called peptide-receptive MHC molecules; MHC class I
Kind of experiment: UV-ligand exchange; anti-b2m ELISA. An excerpt:
Candidate peptides for the vaccines according to the present invention were further tested for immunogenicity by in vitro priming assays. The individual peptide-MHC complexes required for these assays were produced by UV-ligand exchange, where a UV-sensitive peptide is cleaved upon UV-irradiation, and exchanged with the peptide of interest as analyzed. Only peptide candidates that can effectively bind and stabilize the peptide-receptive MHC molecules prevent dissociation of the MHC complexes. To determine the yield of the exchange reaction, an ELISA was performed based on the detection of the light chain (β2m) of stabilized MHC complexes.
Peptide-MHC monomers of the UV-exchange reaction were diluted 100 fold in blocking buffer. Samples were incubated for 1 h at 37° C., washed four times, incubated with 2 μg/ml HRP conjugated anti-β2m for 1 h at 37° C., washed again and detected with TMB solution that is stopped with […]. Absorption was measured at 450 nm.
(In general: ELISA stands for enzyme-linked immunosorbent assay.)

As to RLLAAENFL [SAMSN1-001], the “Average exchange yield in %” value was 47%.
